Measurements taken from article PMC7954794, “Protein context shapes the specificity of SH3 domain-mediated interactions in vivo” (Nature Communications, 2021).

Tests used:
Assay type in all cases: cell-based, Saccharomyces cerevisiae
[1] = system: ABP1; experiment: DHFR-PCA on solid medium, bait ABP1 (Fig. 1B); settings: bait ABP1, label = prey; 2-4 replicates
Excerpt: (§1) Supplement 41467_2021_21873_MOESM8_ESM.xlsx, sheet "Fig1B" | column: medsize; medrep; Ratio; Score

[2] = system: 575 putative partners (preys) of 22 WT SH3-containing proteins; experiment: DHFR-PCA on solid medium, WT and SH3-deleted baits (Fig. 1B); parameters: key to Score: 0: SH3-independent; 1: SH3-dependent PPIs; 2: SH3-inhibited PPIs; settings: for medrep (log2 median colony size normalized to plate background, PCA score): label = prey
Outline: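 In S. cerevisiae, 22 SH3-containing baits fused genomically to DHFR F[1,2], either WT or with each SH3 replaced via CRISPR by a poly-Gly/Ser linker, screened against 575 DHFR F[3] preys plus 40 negative controls in 1536 arrays, preys duplicated at randomized positions.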

[3] = system: BOI2; experiment: DHFR-PCA on solid medium, bait BOI2 (Fig. 1B); settings: bait BOI2, label = prey; for medrep (log2 median colony size normalized to plate background, PCA score): 3-8 replicates; for Ratio (SH3-deleted/WT medrep): only significant differences showed, PPIs completely lost have a ratio of 0.1 and the gained PPIs 2.5
Excerpt: as §1

[4] = system: BBC1; experiment: DHFR-PCA on solid medium, bait BBC1 (Fig. 1B); settings: bait BBC1, label = prey; for medrep (log2 median colony size normalized to plate background, PCA score): 2-4 replicates; for Ratio (SH3-deleted/WT medrep): only significant differences showed, PPIs completely lost have a ratio of 0.1 and the gained PPIs 2.5
Excerpt: as §1

[5] = system: BEM1-2; experiment: DHFR-PCA on solid medium, bait BEM1-2 (Fig. 1B); settings: bait BEM1-2, label = prey; for medrep (log2 median colony size normalized to plate background, PCA score): 2-8 replicates; for Ratio (SH3-deleted/WT medrep): only significant differences showed, PPIs completely lost have a ratio of 0.1 and the gained PPIs 2.5
Excerpt: as §1

[6] = system: BEM1-1; experiment: DHFR-PCA on solid medium, bait BEM1-1 (Fig. 1B); settings: bait BEM1-1, label = prey; for medrep (log2 median colony size normalized to plate background, PCA score): 2-8 replicates
Excerpt: as §1

[7] = system: BOI1; experiment: DHFR-PCA on solid medium, bait BOI1 (Fig. 1B); settings: bait BOI1, label = prey; 3-8 replicates
Excerpt: as §1

[8] = bait SLA1-2, DHFR-PCA, Replicates 4 (2 for YCR009C, YDR388W)
[9] = bait SLA1-3, DHFR-PCA, Replicates 4 (2 for YCR009C, YDR388W, YIL033C)

| Molecule | medrep (log2 median colony size normalized to plate background, PCA score) [1] | medrep (log2 median colony size normalized to plate background, PCA score) [2, 8] | Score ([2]; bait SLA1-2, label = prey) | Ratio (SH3-deleted/WT medrep) ([2]; bait SLA1-2, label = prey, only significant differences shown, PPIs completely lost have a ratio of 0.1, gained PPIs 2.5) | medrep (log2 median colony size normalized to plate background, PCA score) [2, 9] | Score ([2]; bait SLA1-3, label = prey) | medrep (log2 median colony size normalized to plate background, PCA score) [3] | Ratio (SH3-deleted/WT medrep) [3] | medrep (log2 median colony size normalized to plate background, PCA score) [4] | Ratio (SH3-deleted/WT medrep) [4] | medrep (log2 median colony size normalized to plate background, PCA score) [5] | Ratio (SH3-deleted/WT medrep) [5] | medrep (log2 median colony size normalized to plate background, PCA score) [6] | Ratio (SH3-deleted/WT medrep) ([6]; only significant differences showed, PPIs completely lost have a ratio of 0.1 and the gained PPIs 2.5) | medrep (log2 median colony size normalized to plate background, PCA score) [7] |
| --- | --- | --- | --- | --- | --- | --- | --- | --- | --- | --- | --- | --- | --- | --- | --- |
| YKR048C (protein, UniProt P25293 1-417, looked up) Nucleosome assembly protein: MSDPIRTKPKSSMQIDNAPTPHNTPASVLNPSYLKNGNPVRAQAQEQDDKIGTINEEDILANQPLLLQSIQDRLGSLVGQDSGYVGGLPKNVKEKLLSLKTLQSELFEVEKEFQVEMFELENKFLQKYKPIWEQRSRIISGQEQPKPEQIAKGQEIVESLNETELLVDEEEKAQNDSEEEQVKGIPSFWLTALENLPIVCDTITDRDAEVLEYLQDIGLEYLTDGRPGFKLLFRFDSSANPFFTNDILCKTYFYQKELGYSGDFIYDHAEGCEISWKDNAHNVTVDLEMRKQRNKTTKQVRTIEKITPIESFFNFFDPPKIQNEDQDEELEEDLEERLALDYSIGEQLKDKLIPRAVDWFTGAALEFEFEEDEEEADEDEDEEEDDDHGLEDDDGESAEEQDDFAGRPEQAPECKQS | 3.939 | 1.303 | 1 | 0.1 | 1.303 | 0 | 1.303 | 2.5 | 1.806 | 0.1 | – | – | – | – | – |
| YNL243W (protein, UniProt P33338 1-968, looked up) Protein SLA2: MSRIDSDLQKALKKACSVEETAPKRKHVRACIVYTWDHQSSKAVFTTLKTLPLANDEVQLFKMLIVLHKIIQEGHPSALAEAIRDRDWIRSLGRVHSGGSSYSKLIREYVRYLVLKLDFHAHHRGFNNGTFEYEEYVSLVSVSDPDEGYETILDLMSLQDSLDEFSQIIFASIQSERRNTECKISALIPLIAESYGIYKFITSMLRAMHRQLNDAEGDAALQPLKERYELQHARLFEFYADCSSVKYLTTLVTIPKLPVDAPDVFLINDVDESKEIKFKKREPSVTPARTPARTPTPTPPVVAEPAISPRPVSQRTTSTPTGYLQTMPTGATTGMMIPTATGAANAIFPQATAQMQPDFWANQQAQFANEQNRLEQERVQQLQQQQAQQELFQQQLQKAQQDMMNMQLQQQNQHQNDLIALTNQYEKDQALLQQYDQRVQQLESEITTMDSTASKQLANKDEQLTALQDQLDVWERKYESLAKLYSQLRQEHLNLLPRFKKLQLKVNSAQESIQKKEQLEHKLKQKDLQMAELVKDRDRARLELERSINNAEADSAAATAAAETMTQDKMNPILDAILESGINTIQESVYNLDSPLSWSGPLTPPTFLLSLLESTSENATEFATSFNNLIVDGLAHGDQTEVIHCVSDFSTSMATLVTNSKAYAVTTLPQEQSDQILTLVKRCAREAQYFFEDLMSENLNQVGDEEKTDIVINANVDMQEKLQELSLAIEPLLNIQSVKSNKETNPHSELVATADKIVKSSEHLRVDVPKPLLSLALMIIDAVVALVKAAIQCQNEIATTTSIPLNQFYLKNSRWTEGLISAAKAVAGATNVLITTASKLITSEDNENTSPEQFIVASKEVAASTIQLVAASRVKTSIHSKAQDKLEHCSKDVTDACRSLGNHVMGMIEDDHSTSQQQQPLDFTSEHTLKTAEMEQQVEILKLEQSLSNARKRLGEIRRHAYYNQDDD | 4.661 | 4.4709 | 0 | – | 4.4709 | 0 | – | – | 2.46 | 0.1 | 1.569 | 0.1 | 1.569 | 0.1 | – |
| YAL041W (protein, UniProt P11433 1-854, looked up) Cell division control protein …: MAIQTRFASGTSLSDLKPKPSATSISIPMQNVMNKPVTEQDSLFHICANIRKRLEVLPQLKPFLQLAYQSSEVLSERQSLLLSQKQHQELLKSNGANRDSSDLAPTLRSSSISTATSLMSMEGISYTNSNPSATPNMEDTLLTFSMGILPITMDCDPVTQLSQLFQQGAPLCILFNSVKPQFKLPVIASDDLKVCKKSIYDFILGCKKHFAFNDEELFTISDVFANSTSQLVKVLEVVETLMNSSPTIFPSKSKTQQIMNAENQHRHQPQQSSKKHNEYVKIIKEFVATERKYVHDLEILDKYRQQLLDSNLITSEELYMLFPNLGDAIDFQRRFLISLEINALVEPSKQRIGALFMHSKHFFKLYEPWSIGQNAAIEFLSSTLHKMRVDESQRFIINNKLELQSFLYKPVQRLCRYPLLVKELLAESSDDNNTKELEAALDISKNIARSINENQRRTENHQVVKKLYGRVVNWKGYRISKFGELLYFDKVFISTTNSSSEPEREFEVYLFEKIIILFSEVVTKKSASSLILKKKSSTSASISASNITDNNGSPHHSYHKRHSNSSSSNNIHLSSSSAAAIIHSSTNSSDNNSNNSSSSSLFKLSANEPKLDLRGRIMIMNLNQIIPQNNRSLNITWESIKEQGNFLLKFKNEETRDNWSSCLQQLIHDLKNEQFKARHHSSTSTTSSTAKSSSMMSPTTTMNTPNHHNSRQTHDSMASFSSSHMKRVSDVLPKRRTTSSSFESEIKSISENFKNSIPESSILFRISYNNNSNNTSSSEIFTLLVEKVWNFDDLIMAINSKISNTHNNNISPITKIKYQDEDGDFVVLGSDEDWNVAKEMLAENNEKFLNIRLY | – | – | – | – | – | – | 3.947 | – | – | – | 4.862 | – | 4.862 | – | 2.673 |
| YDR166C (protein, UniProt P89102 1-971, looked up) Exocyst complex component SEC5: MDRFQIGDEQLLRFYQLKTINPTHSWAQDSSKLNNEEATSNELGVETSFDILKDFKYGNQISIDKESRAYLNDESLSYIRDPLNGQEMSKELQHLPNDSMRLNYLVNSKQFNVKAFLRDMHKQDSFNDLNNSLDRLDSDIQDQSIHLKQLVGKNFTKYVKIKNKLDQIYKEFDEKTNEKNQCDSPKENQINVESLNKKVDEVIRTTTFKLKPLMDNYQKILNYQATKKFIELNKFYFNLPKSLKRCLTNNDFNEFIIEYSKGLTLRRRFNQSSDASQSLVIKRIWTQIENLLVTYKDLIWNSLINSNFNIDQPQETILSLFSKLLNLENFINNNQRESESGNKNTTSSSNENPILRWMSIKMNGFQNELNELSGHMISKIIHSQRLILQNNTNQDKSQGCVELSYYLKINQLFQIISDTGKDSEGLKSTVEPNKVNTISGTSYLNLNCQPSSQGLTDSPTIIEMWLLILKYINDLWKICDQFIEFWEHIEKFLDGTYQNSIINEKRKENILIGDSNIIESYQKSLILKEEQINEVRLKGEEFITSVSQNLISFFTSSQSSLPSSLKDSTGDITRSNKDSGSPLDYGFIPPNCNGLSCLRYLPKIVEPILKFSTELAQLNITTNGITICRNTLSTIINRCVGAISSTKLRDISNFYQLENWQVYETVTFSSKSQDSSKNLTFEYGVTQFPEIVTSFQEVSIKTTRDLLFAYEKLPIINGISVVSYPSKQLLTGIEIQQIISMEAVLEAILKNAAKDKDNPRNSHTILTLTNLQYFRECAFPNILQYFDDAFEWNLASKNLELFSLLSKMESSIFGNYLSDLKINLRDTLEEKFHEINWPMYTSNSFRVGDYIIEALMILIVVHSECFRIGPQLIHKILIETQIFIARYLFEAFKPYVGNLSNDGSLQIIVDLEFFQKVMGPLLEKDTEATLRACLQNCFQNDTNRLQKCINEINPIVSANLKRTAIQFAAFS | – | – | – | – | – | – | 1.688 | 0.1 | – | – | 2.981 | 0.1 | 2.981 | – | – |
| YER114C (protein) PMYIAINEYFKRMEDELDMKPGDKIKVITDDEEYKDGWYFGRNLRTNEEGLYPVVFTQKIT | – | – | – | – | – | – | 3.383 | – | – | – | 2.85 | 0.1 | 2.85 | – | – |
